Legend:
MS2 coat protein [1] = test: apparent KD of MS2 coat protein, switch ON state; designed switch direction (-1 OFF switch, 1 ON switch): -1; higher = weaker reporter binding; conditions: FMN input: 0 or 200 uM; Eterna round: R93 (includes R88 designs)
Summary of the method: (§1)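 Titration buffer: 100 mM Tris-HCl pH 7.5, 80 mM KCl, 4 mM MgCl2, without or with constant ligand. Designed RNA switches transcribed on-chip from Illumina sequencing clusters received SNAP-549-labelled MS2 coat protein in twofold steps from 0.7 or 1.5 nM to 3 µM. Apparent KD is the median per design of fits to normalised cluster binding curves.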

MS2 coat protein [2] = test: apparent KD of MS2 coat protein, switch OFF state (with FMN for OFF switches, without FMN for ON switches); designed switch direction (-1 OFF switch, 1 ON switch): -1; higher = weaker reporter binding; conditions: FMN input: 0 or 200 uM; Eterna round: R93 (includes R88 designs)
Summary of the method: as §1

Row | Sequence | apparent KD of MS2 coat protein (MS2 coat protein [1]) [nM] | apparent KD of MS2 coat protein (MS2 coat protein [2]) [nM]
1 | AAAAAGGGAGGAUAUGCAAAAAAAAAAAAAAAAAAAAAAAAACAUGAGGAUCACCCAUGUAGAAGGCCCAAAAA [Dora Baggins - Jieux - Exclusion 2] | 32.4 | 34.4
2 | AACAGUACAGGAUAUACAUGAGGAUCACCCAUGUAAAAAUAAAAGGGCGUACCACAAAGUAGAAGGGUACUGGA [Moding Maslow revisited (73) 12] | 44.7 | 34
3 | AACUGUACAGGAUAUACAUGAGGAUCACCCAUGUGAGAAUUAAGUGGAAAACCACAAAGUAGAAGGGUACAGGA [Mat - Exclusion 3 - JL mod - D18] | 27.6 | 136
4 | AAAAAGACAGGAUAUACGUGAAAAAUAAAAAUGUAAAAAAAACAUGAGGAUCACCCAUGUAGAAGGGUCAAAAA [Ecx-I 62% 3] | 59.3 | 61.8
5 | AACUGACAUGAGGAUCACCCAUGUCAGGAUAUGACAUCGAAAAAUAAAUAAAUCGUUGUCAGAAGGGACAUGGA [Design 74: Sub-opt RB] | 25.1 | 38
6 | AACAAACAUGAGGAUCACCCAUGUCAGGAUAUGCAUAAAUAAAUAAAUAAAUAAAUAAGCAGAAGGGACACAAC [Amethyst 90] | 45.1 | 53.3
7 | AGGAUGUCAGGAUAUGUGUAAAGAAUAAAAGAAAUAACAACACAGAAGGGACAUGAGGAUCACCCAUGUUAAAA [May 35] | 48.8 | 44.3
8 | AAAAAACAUGAGGAUCACCCAUGUCAGGAUAUCCGGUUCUUGAAAAAAAAGAGGCGUUGGAGAAGGGACAUUCC [Chica Displaced 13 - Jieux - Exclusion 1] | 25 | 38.7
9 | AACAGUACAGGAUAUACAUGAGGAUCACCCAUGUAAAAUAAAUAAAAAUAAAAGGGAAGUAGAAGGGUACUGGA [Moding Maslow revisited (73) 17] | 31.6 | 46.5
10 | AAAUGCUGAGGAUAUACAUGAGGAUCACCCAUGUAAAAUAAAUAAAGGGUGUAAACGUGUAGAAGGCAGCAUAA [Exclusion 3.14e (FMN+ favored )] | 39.4 | 32.6
11 | AGCAAGAGAGGAUAUACAUAAAAAAAAAAAGUCUGAUCCCUACAUGAGGAUCACCCAUGUAGAAGGCUCUGGCA [Ex2 Design 156: Sub-opt 20] | 28.8 | 26.2
12 | AAAAAGGGAGGAUAUACAUGAGUAGAUCGUGUAAAAAAAAUACAUGAGGAUCACCCAUGUAGAAGGCCCAAAAA [Ecxl-III] | 96.8 | 31.5
13 | AAAAAUGGAGGAUAUACGUACAUGUCAAAAGACGUGAAGGGACAUGAGGAUCACCCAUGUAGAAGGCUAAAAAA [JL Stem Breaker 7] | 80.1 | 29.5
14 | AAAGGACUAGGAUAUACAUGAGGAUCACCCAUGUAAAAAACAUAAUAAAAGAACUUAUGUAGAAGGAGUCCAAA [69%, Moding Meechl, 9] | 31.7 | 93.7
15 | AGUUGGCGAGGAUAUACAUGAGGAUCACCCAUGUGGAAGAAAAAAGUGAGAAAGAAAAGUAGAAGGCGCUGACA [Mat - Exclusion 3 - Lego mod - D87] | 67.5 | 316
16 | UAUAACCAAGGAUAUACUAACGAAACUAAUGCAUAUAUAUAACAUGAGGAUCACCCAUGUAGAAGGUGGAGAAU [JR_Exc002_Sub012] | 60.5 | 50.2
17 | AUCUACCUAGGAUAUACAUGAGGAUCACCCAUGUACAGUUUCAACUAGGGAAACUCACGUAGAAGGAGGUAGAU [JR_Exc003_Sub1209] | 48.2 | 25.2

Row | Sequence | apparent KD of MS2 coat protein (MS2 coat protein [1]) [nM] | apparent KD of MS2 coat protein (MS2 coat protein [2]) [nM]
18 | AAAAAUUGAGGAUAUACGAACAUGUCAAAAGACGUGAAGGGACAUGAGGAUCACCCAUGUAGAAGGCGAAAGAA [JL Loop Breaker 1] | 45.1 | 19.9
19 | ACUGAUACAGGAUAUACGUGAGUGGAAAAAGUGUUUCCACUACAUGAGGAUCACCCAUGUAGAAGGGUAUCAGA [Ex2 Design 180: Random 6] | 77.4 | 91.5
20 | AAAAAACAUGAGGAUCACCCAUGUGAGGAUAUGUAUAUCCCUAAAAAAGUGUGGGACUACAGAAGGCACUUGGA [Atanri] | 43.3 | 122
21 | AACAGUACAGGAUAUACAUGAGGAUCACCCAUGUGGGUAAAAAGAUCGAGAGAUCAAUGUAGAAGGGUACUGGA [JL In the Red 04] | 259 | 104
22 | AAAAAGUGAGGAUAUGCAGUGGCCUGUAGACGCGAGCACUUGUAGAAGGCACAUGAGGAUCACCCAUGUUUAAA [EX4 Malc#29] | 21.3 | 20.5
23 | GAAAAGUCAGGAUAUACAGAAAAAAAAACGAAAAAAAAUCUGUAGAAGGGACAUGAGGAUCACCCAUGUUAAAG [Mat - Exclusion 4 - Mayanna - D126] | 38 | 23.6
24 | AAGAAUCGAGGAUAUACAUGAGGAUCACCCAUGUAAAAGAAAGAAGGGAAAGAGAAAAGUAGAAGGCGAAAGAA [Menkheperre Nekau I] | 22.6 | 27.7
25 | AAAAAGAUAGGAUAUACGUACAUGUCAAAAGACGUGAAGGGACAUGAGGAUCACCCAUGUAGAAGGGUUAAAAA [JL Wide Open 41] | 285 | 45.3
26 | AACUGACAUGAGGAUCACCCAUGUCAGGAUAUGCUUAAUAAAAAAAAAAAAAAAUGAUGCAGAAGGGAUAUGGG [Amethyst 56] | 23.7 | 18.9
27 | AAAAAACAUGAGGAUCACCCAUGUCAGGAUAUCGAAAGAAAAAAAAAGAAAAAAAAAACGAGAAGGGACAAAAA [Amethyst 28] | 56.1 | 30.3
28 | AACAUACAUGAGGAUCACCCAUGUCAGGAUAUGCCGGGUUAGAAAAAAAAAAAAAAACGUAGAAGGGACAAAAA [Bilbo Confounded 3 - Jieux - Exclusion 1] | 62.4 | 62.2
29 | AGUGAGUGAGGAUAUUACUGAAGAAUAAAAGAAAUAACAAGUAAGAAGGCACAUGAGGAUCACCCAUGUACACA [May 61] | 22.4 | 22
30 | AGAACGUCAGGAUAUCGAACAACAAGUAAAUAGAGAAGAAGCGAGAAGGGACAUGAGGAUCACCCAUGUAAGAA [e4-3] | 62.5 | 48.9
31 | AAAAAACAUGAGGAUCACCCAUGUAAGGAUAUGCAAGCAAGAAGAAAGAACAGAAAAAGCAGAAGGUACAAAAA [Amethyst 72] | 25.3 | 35.9
32 | AAAACGUGAGGAUAUGCACCAAAAAAGGUAAAUCGGGUACGACAUGAGGAUCACCCAUGUAGAAGGCACGAAAA [Frodo Flailing 11 - Jieux - Exclusion 2] | 28.2 | 42.9
33 | GAAAAACAUGAGGAUCACCCAUGUUAGGAUAUGCUAUGGAAAAAUAAAAUAAAACAUAGCAGAAGGGACAAAAG [Mat - Exclusion 1 - Eli mod - D29] | 24.7 | 88.5
34 | GAAAACCUAGGAUAUACAUGAGGAUCACCCAUGUCAGUAGACUGGGAAAGGUCUCUCAGUAGAAGGAGGACCCG [Zaered] | 509 | 437

From the supplement of paper PMC9170038
